Assay results from the supplement of paper PMC10724198.
± gives the standard deviation of the averaged measurements.

Key:
Saccharomyces cerevisiae [1] = assay: protein stability index of tFT-peptide fusion (C-terminal peptide) (PSI (0-1 scale)); higher = more stable (slower turnover); details: genetic background: wild type; temperature: 30 C
Saccharomyces cerevisiae [2] = assay: as above
Procedure: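 MPS profiling in S. cerevisiae of the tFT-X12 degron library: putative degron peptides plus stable controls, 12 aa, fused to the C-terminus of a sfGFP-mCherry timer. Cells are FACS-sorted into 8 mCherry/sfGFP bins and deep-sequenced. PSI runs from 0 (unstable) to 1 (stable). Backgrounds are wild type, das1Δ and doa10Δ at 30 °C, and wild type, das1Δ, cdc34-1 and cdc53-1 at 37 °C; 2-3 technical replicates each.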

[3] = genetic background: cdc34-1, temperature: 37 C
[4] = genetic background: cdc53-1, temperature: 37 C
[5] = genetic background: das1 deletion, temperature: 30 C
[6] = genetic background: das1 deletion, temperature: 37 C
[7] = genetic background: doa10 deletion, temperature: 30 C
[8] = genetic background: wild type, temperature: 30 C
[9] = genetic background: wild type, temperature: 37 C
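Also: PSI is a weighted mean of sequencing reads over stability bins, variants kept only with over 10 reads, mCherry proximal and sfGFP distal, peptide attached via GGGS linker.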

| Sequence | protein stability index (Saccharomyces cerevisiae [1]) | protein stability index (Saccharomyces cerevisiae [2]; [3]) | protein stability index (Saccharomyces cerevisiae [2]; [4]) | protein stability index (Saccharomyces cerevisiae [2]; [5]) | protein stability index (Saccharomyces cerevisiae [2]; [6]) | protein stability index (Saccharomyces cerevisiae [2]; [7]) | protein stability index (Saccharomyces cerevisiae [2]; [8]) | protein stability index (Saccharomyces cerevisiae [2]; [9]) |
| --- | --- | --- | --- | --- | --- | --- | --- | --- |
| GLLLLGIRLKWG | 0.269 ± 0.011 | 0.139 ± 0.029 | 0.274 ± 0.037 | 0.208 ± 0.015 | 0.363 ± 0.026 | 0.157 ± 0.014 | 0.206 ± 0.013 | 0.328 ± 0.02 |
| GLLLRLRNLFCM | 0.522 ± 0.042 | 0.759 ± 0.087 | 0.8043 ± 0.0034 | 0.748 ± 0.019 | 0.851 ± 0.028 | 0.387 ± 0.026 | 0.391 ± 0.02 | 0.547 ± 0.05 |
| GLVVVVRLQYSP | 0.404 ± 0.027 | 0.309 ± 0.027 | 0.424 ± 0.02 | 0.329 ± 0.017 | 0.458 ± 0.011 | 0.27482 ± 1.4e-06 | 0.299 ± 0.016 | 0.4415 ± 0.0014 |
| GLYFFVVRIFKV | 0.27 ± 0.059 | 0.219 ± 0.021 | 0.345 ± 0.075 | 0.221 ± 0.039 | 0.437 ± 0.013 | 0.167 ± 0.0056 | 0.184 ± 0.022 | 0.336 ± 0.0096 |
| GPGTWLFCFVRF | 0.509 ± 0.027 | 0.504 ± 0.032 | 0.55 ± 0.0069 | 0.432 ± 0.029 | 0.602 ± 0.0065 | 0.475 ± 0.017 | 0.42 ± 0.022 | 0.612 ± 0.031 |
| GQFFRCWRRRLC | 0.171 ± 0.081 | 0.634 ± 0.044 | 0.709 ± 0.0072 | 0.649 ± 0.03 | 0.72 ± 0.022 | 0.145 ± 0.019 | 0.166 ± 0.028 | 0.443 ± 0.011 |
| GRGLRVCWVWSG | 0.286 ± 0.016 | 0.622 ± 0.054 | 0.7084 ± 0.0069 | 0.605 ± 0.019 | 0.7428 ± 0.0054 | 0.147 ± 0.013 | 0.18 ± 0.015 | 0.387 ± 0.013 |
| GRHRRIRYVKTS | 0.261 ± 0.087 | 0.633 ± 0.05 | 0.723 ± 0.0099 | 0.655 ± 0.014 | 0.744 ± 0.028 | 0.146 ± 0.024 | 0.183 ± 0.03 | 0.3527 ± 0.00097 |
| GSLFANYNLKLF | 0.163 ± 0.025 | 0.62289 ± 0.00034 | 0.724 ± 0.017 | 0.648 ± 0.06 | 0.771 ± 0.033 | 0.108 ± 0.017 | 0.106 ± 0.028 | 0.211 ± 0.013 |
| GSVHLTKERHLV | 0.319 ± 0.016 | 0.66 ± 0.028 | 0.74 ± 0.03 | 0.648 ± 0.032 | 0.7436 ± 0.0024 | 0.207 ± 0.0061 | 0.241 ± 0.036 | 0.499 ± 0.0063 |
| GVAILFTFFRLL | 0.159 ± 0.022 | 0.228 ± 0.086 | 0.526 ± 0.0023 | 0.456 ± 0.025 | 0.612 ± 0.02 | 0.0564 ± 0.016 | 0.0756 ± 0.0073 | 0.0737 ± 0.012 |
| GVGHAWHYFCVC | 0.357 ± 0.025 | 0.614 ± 0.044 | 0.7347 ± 0.0032 | 0.608 ± 0.018 | 0.74764 ± 0.00017 | 0.197 ± 0.017 | 0.247 ± 0.021 | 0.431 ± 0.0045 |
| GVLIFLSFQPIA | 0.431 ± 0.037 | 0.539 ± 0.021 | 0.617 ± 0.023 | 0.429 ± 0.03 | 0.599 ± 0.0088 | 0.3783 ± 0.0017 | 0.414 ± 0.013 | 0.556 ± 0.0093 |
| GVLRMAPGRVMC | 0.268 ± 0.032 | 0.599 ± 0.031 | 0.704 ± 0.0083 | 0.598 ± 0.024 | 0.702 ± 0.016 | 0.159 ± 0.02 | 0.175 ± 0.0027 | 0.345 ± 0.04 |
| GVQFSVKWVKLG | 0.225 ± 0.019 | 0.519 ± 0.022 | 0.7 ± 0.0093 | 0.616 ± 0.014 | 0.734 ± 0.0015 | 0.106 ± 0.011 | 0.109 ± 0.025 | 0.18 ± 0.0065 |
| GVSLQLHVAVLI | 0.44 ± 0.047 | 0.72 ± 0.39 | – | 0.483 ± 0.053 | 0.542 ± 0.056 | 0.275 ± 0.036 | 0.278 ± 0.0093 | 0.4284 ± 0.0018 |
| GVSLRVFVVSVC | 0.212 ± 0.053 | 0.137 ± 0.02 | 0.162 ± 0.015 | 0.219 ± 0.02 | 0.316 ± 0.0044 | 0.108 ± 0.005 | 0.122 ± 0.018 | 0.142 ± 0.0047 |
| GVVWPLGWVWVE | 0.527 ± 0.05 | 0.699 ± 0.016 | 0.7315 ± 0.0022 | 0.614 ± 0.012 | 0.7383 ± 0.0066 | 0.368 ± 0.014 | 0.421 ± 0.025 | 0.615 ± 0.0074 |
| GWRFCVFIYVHR | 0.179 ± 0.042 | 0.0703 ± 0.011 | 0.0688 ± 0.0038 | 0.115 ± 0.033 | 0.196 ± 0.012 | 0.213 ± 0.018 | 0.107 ± 0.015 | 0.186 ± 0.0085 |
